Reference: PMC3448795 (2012)

Tests used:
HDM2(25-47) [1] = target: T1, HDM2(25-47) (Homo sapiens, not fully specified; Ca2+; peptide N-acetylated, C-amidated); assay: ITC
T1 chain: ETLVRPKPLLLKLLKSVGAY

HDM4(25-47) [2] = target: T2, HDM4(25-47) (Homo sapiens, not fully specified; Ca2+; peptide N-acetylated, C-amidated); assay: ITC
T2 chain: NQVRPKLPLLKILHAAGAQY

[3] = target: T3, TRTK12 (CapZ peptide 265-276) (Homo sapiens, not fully specified); assay: ITC
T3 chain: Ac-TRTKIDWNKILS-NH2

NDR(62-87), site 2 = target: T4, NDR(62-87), site 2 (Homo sapiens, not fully specified; Ca2+; peptide N-acetylated, C-amidated); assay: ITC
T4 chain: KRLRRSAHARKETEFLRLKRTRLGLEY

NDR(62-87), site 1 = target: T5, NDR(62-87), site 1 (Homo sapiens, not fully specified; Ca2+; peptide N-acetylated, C-amidated); assay: ITC
T5 chain: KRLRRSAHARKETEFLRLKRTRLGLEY

HDM2(25-47) [4] = target: T1, HDM2(25-47); assay: NMR line shape analysis
HDM4(25-47) [5] = target: T2, HDM4(25-47); assay: NMR line shape analysis
[6] = target: T3, TRTK12 (CapZ peptide 265-276); assay: NMR line shape analysis

B1: S100B (protein)
chain: SELEKAMVALIDVFHQYSGREGDKHKLKKSELKELINNELSHFLEEIKEQEVVDKVMETLDNDGDGECDFQEFMAFVAMVTTACHEFFEHE
B1 showed a Kd (HDM2(25-47) [1]) of 500 nM, a Kd (HDM4(25-47) [2]) of 70 nM and a Kd [3] of 2000 nM. It also gave a Kd (NDR(62-87), site 2) of 2000 nM, a Kd (NDR(62-87), site 1) of 400 nM and a Kd (HDM2(25-47) [4]) of 100 nM. The Kd (HDM4(25-47) [5]) was 1000 nM and the Kd [6] was 1000 nM.
